The text below walks through data of patent publication US20250218531A1 (ABSCI, published 2025).

B1: AI Design 7 (multi-step AI designed trastuzumab variant, native HCDR1) (Fab, V domains shown)
VH: EVQLVESGGGLVQPGGSLRLSCAASGFNIKDTYIHWVRQAPGKGLEWVARIDPANGYTRYADSVKGRFTISADTSKNTAYLQMNSLRAEDTAVYYCARVGGRGYYYYDYWGQGTLVTVSS
VL: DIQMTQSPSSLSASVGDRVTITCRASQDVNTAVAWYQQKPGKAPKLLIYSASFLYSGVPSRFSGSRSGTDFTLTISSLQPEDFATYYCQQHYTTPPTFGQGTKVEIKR
notes: Fab format; also called GFNIKDTY / IDPANGYT / ARVGGRGYYYYDY
B2: AI Design 2 (multi-step AI designed trastuzumab HCDR1/2/3 variant) (Fab, V domains shown)
VH: EVQLVESGGGLVQPGGSLRLSCAASGFNISDYYIHWVRQAPGKGLEWVARIYPSSGYTRYADSVKGRFTISADTSKNTAYLQMNSLRAEDTAVYYCARDGGVGSYSMDVWGQGTLVTVSS
VL: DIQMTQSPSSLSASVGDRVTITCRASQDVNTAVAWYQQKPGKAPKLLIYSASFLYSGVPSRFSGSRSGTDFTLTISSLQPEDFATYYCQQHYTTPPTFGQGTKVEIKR
notes: Fab format; also called GFNISDYY / IYPSSGYT / ARDGGVGSYSMDV
B3: De novo trastuzumab HCDR3 variant ARDYDFGLSVGAV (SEQ ID NO: 486) (Fab, V domains shown)
VH: EVQLVESGGGLVQPGGSLRLSCAASGFNIKDTYIHWVRQAPGKGLEWVARIYPTNGYTRYADSVKGRFTISADTSKNTAYLQMNSLRAEDTAVYYCARDYDFGLSVGAVWGQGTLVTVSS
VL: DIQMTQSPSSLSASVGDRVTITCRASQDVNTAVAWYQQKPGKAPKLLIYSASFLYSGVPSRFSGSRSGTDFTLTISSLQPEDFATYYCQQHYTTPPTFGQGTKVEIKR
B4: De novo trastuzumab HCDR3 variant ARSNNWYSYSFQF (SEQ ID NO: 478) (Fab, V domains shown)
VH: EVQLVESGGGLVQPGGSLRLSCAASGFNIKDTYIHWVRQAPGKGLEWVARIYPTNGYTRYADSVKGRFTISADTSKNTAYLQMNSLRAEDTAVYYCARSNNWYSYSFQFWGQGTLVTVSS
VL: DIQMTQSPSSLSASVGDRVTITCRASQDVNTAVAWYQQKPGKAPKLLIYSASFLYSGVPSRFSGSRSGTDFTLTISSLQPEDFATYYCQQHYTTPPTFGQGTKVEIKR
B5: De novo trastuzumab HCDR3 variant VRSGYDYYSWFAY (SEQ ID NO: 492) (Fab, V domains shown)
VH: B4 VH with A97V, N100G, N101Y, W102D, S104Y, Y105S, S106W, Q108A, F109Y
VL: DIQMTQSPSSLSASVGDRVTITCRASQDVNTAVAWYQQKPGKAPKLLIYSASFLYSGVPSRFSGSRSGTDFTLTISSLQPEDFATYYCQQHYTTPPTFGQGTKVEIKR
B6: De novo trastuzumab HCDR3 variant ARGYAYYVAGREY (SEQ ID NO: 493) (Fab, V domains shown)
VH: B3 VH with D99G, D101A, F102Y, G103Y, L104V, S105A, V106G, G107R, A108E, V109Y
VL: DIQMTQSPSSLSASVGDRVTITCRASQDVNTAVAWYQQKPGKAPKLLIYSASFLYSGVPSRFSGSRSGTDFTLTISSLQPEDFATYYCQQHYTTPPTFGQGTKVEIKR
B7: De novo trastuzumab HCDR3 variant ATGLSPSGSNGPY (SEQ ID NO: 491) (Fab, V domains shown)
VH: B3 VH with R98T, D99G, Y100L, D101S, F102P, G103S, L104G, V106N, A108P, V109Y
VL: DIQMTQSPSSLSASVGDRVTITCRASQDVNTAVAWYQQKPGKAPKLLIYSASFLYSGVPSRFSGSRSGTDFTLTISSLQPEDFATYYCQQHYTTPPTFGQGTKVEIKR
B8: De novo trastuzumab HCDR3 variant AYMGSHTIYSFEH (SEQ ID NO: 479) (Fab, V domains shown)
VH: B4 VH with R98Y, S99M, N100G, N101S, W102H, Y103T, S104I, Q108E, F109H
VL: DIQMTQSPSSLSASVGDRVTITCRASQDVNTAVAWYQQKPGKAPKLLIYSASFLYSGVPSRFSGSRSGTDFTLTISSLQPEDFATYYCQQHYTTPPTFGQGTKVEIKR
B9: De novo trastuzumab HCDR3 variant AWASGYGGYGMDY (SEQ ID NO: 488) (Fab, V domains shown)
VH: B1 VH with D52Y, A54T, R98W, V99A, G100S, R102Y, Y104G, Y106G, Y107M
VL: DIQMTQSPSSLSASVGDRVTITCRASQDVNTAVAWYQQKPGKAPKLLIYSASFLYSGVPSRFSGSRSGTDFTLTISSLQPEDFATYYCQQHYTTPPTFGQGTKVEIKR
B10: De novo trastuzumab HCDR3 variant ARLGASHGYLYDD (SEQ ID NO: 484) (Fab, V domains shown)
VH: B1 VH with D52Y, A54T, V99L, G101A, R102S, G103H, Y104G, Y106L, Y109D
VL: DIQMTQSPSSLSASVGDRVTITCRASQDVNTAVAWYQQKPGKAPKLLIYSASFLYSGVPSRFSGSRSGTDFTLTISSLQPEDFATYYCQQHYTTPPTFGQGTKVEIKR
B11: De novo trastuzumab HCDR3 variant ARNYYGAAYYFDY (SEQ ID NO: 495) (Fab, V domains shown)
VH: B1 VH with D52Y, A54T, V99N, G100Y, G101Y, R102G, G103A, Y104A, Y107F
VL: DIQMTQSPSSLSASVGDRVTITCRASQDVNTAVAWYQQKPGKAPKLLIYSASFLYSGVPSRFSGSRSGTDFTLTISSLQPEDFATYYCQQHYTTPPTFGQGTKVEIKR
B12: De novo trastuzumab HCDR3 variant ARYHYRTIGSFGY (SEQ ID NO: 487) (Fab, V domains shown)
VH: B4 VH with S99Y, N100H, N101Y, W102R, Y103T, S104I, Y105G, Q108G, F109Y
VL: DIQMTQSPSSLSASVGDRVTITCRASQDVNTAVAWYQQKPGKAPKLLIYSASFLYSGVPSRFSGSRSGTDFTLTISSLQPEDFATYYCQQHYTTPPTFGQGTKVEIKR
B13: De novo trastuzumab HCDR3 variant ATSGTASWQHYGV (SEQ ID NO: 481) (Fab, V domains shown)
VH: EVQLVESGGGLVQPGGSLRLSCAASGFNIKDTYIHWVRQAPGKGLEWVARIYPTNGYTRYADSVKGRFTISADTSKNTAYLQMNSLRAEDTAVYYCATSGTASWQHYGVWGQGTLVTVSS
VL: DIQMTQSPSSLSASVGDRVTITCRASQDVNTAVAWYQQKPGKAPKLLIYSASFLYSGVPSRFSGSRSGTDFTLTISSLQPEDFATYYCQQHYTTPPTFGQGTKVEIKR
B14: De novo trastuzumab HCDR3 variant ARLYYSSFNGM (SEQ ID NO: 485) (Fab, V domains shown)
VH: EVQLVESGGGLVQPGGSLRLSCAASGFNIKDTYIHWVRQAPGKGLEWVARIYPTNGYTRYADSVKGRFTISADTSKNTAYLQMNSLRAEDTAVYYCARLYYSSFNGMWGQGTLVTVSS
VL: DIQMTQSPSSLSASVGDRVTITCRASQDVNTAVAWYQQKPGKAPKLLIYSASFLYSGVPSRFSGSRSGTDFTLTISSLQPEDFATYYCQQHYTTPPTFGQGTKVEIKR
B15: De novo trastuzumab HCDR3 variant TRRDFGYYMAY (SEQ ID NO: 494) (Fab, V domains shown)
VH: B14 VH with A97T, L99R, Y100D, Y101F, S102G, S103Y, F104Y, N105M, G106A, M107Y
VL: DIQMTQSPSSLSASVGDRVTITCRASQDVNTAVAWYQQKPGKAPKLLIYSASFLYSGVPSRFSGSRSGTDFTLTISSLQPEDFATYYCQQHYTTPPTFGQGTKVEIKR
B16: De novo trastuzumab HCDR3 variant AVEGGTRALEP (SEQ ID NO: 483) (Fab, V domains shown)
VH: B14 VH with R98V, L99E, Y100G, Y101G, S102T, S103R, F104A, N105L, G106E, M107P
VL: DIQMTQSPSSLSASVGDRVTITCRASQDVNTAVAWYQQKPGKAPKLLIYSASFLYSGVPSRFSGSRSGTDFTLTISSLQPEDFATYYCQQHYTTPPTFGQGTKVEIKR
B17: De novo trastuzumab HCDR3 variant ARTGWGYDNISGYEY (SEQ ID NO: 497) (Fab, V domains shown)
VH: EVQLVESGGGLVQPGGSLRLSCAASGFNIKDTYIHWVRQAPGKGLEWVARIYPTNGYTRYADSVKGRFTISADTSKNTAYLQMNSLRAEDTAVYYCARTGWGYDNISGYEYWGQGTLVTVSS
VL: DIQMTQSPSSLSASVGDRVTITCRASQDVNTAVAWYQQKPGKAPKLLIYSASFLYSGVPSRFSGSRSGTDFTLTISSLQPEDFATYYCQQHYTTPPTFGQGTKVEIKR
B18: De novo trastuzumab HCDR3 variant ARYYGWYYYFDY (SEQ ID NO: 482) (Fab, V domains shown)
VH: EVQLVESGGGLVQPGGSLRLSCAASGFNIKDTYIHWVRQAPGKGLEWVARIYPTNGYTRYADSVKGRFTISADTSKNTAYLQMNSLRAEDTAVYYCARYYGWYYYFDYWGQGTLVTVSS
VL: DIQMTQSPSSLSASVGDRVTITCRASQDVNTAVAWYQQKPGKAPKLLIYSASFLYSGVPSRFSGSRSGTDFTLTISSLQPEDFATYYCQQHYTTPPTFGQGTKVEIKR
B19: De novo trastuzumab HCDR3 variant ARYLSDSYAWDY (SEQ ID NO: 490) (Fab, V domains shown)
VH: B18 VH with Y100L, G101S, W102D, Y103S, Y105A, F106W
VL: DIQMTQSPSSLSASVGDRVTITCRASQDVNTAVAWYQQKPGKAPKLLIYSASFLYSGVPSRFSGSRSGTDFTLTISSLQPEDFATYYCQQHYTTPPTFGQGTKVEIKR
B20: De novo trastuzumab HCDR3 variant ARYHYSGFFMDA (SEQ ID NO: 489) (Fab, V domains shown)
VH: B18 VH with Y100H, G101Y, W102S, Y103G, Y104F, Y105F, F106M, Y108A
VL: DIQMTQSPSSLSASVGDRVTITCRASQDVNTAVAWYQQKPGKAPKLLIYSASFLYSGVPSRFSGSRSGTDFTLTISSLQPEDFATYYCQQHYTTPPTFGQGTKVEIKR
B21: De novo trastuzumab HCDR3 variant ARGYGVGASFVY (SEQ ID NO: 496) (Fab, V domains shown)
VH: B18 VH with Y99G, W102V, Y103G, Y104A, Y105S, D107V
VL: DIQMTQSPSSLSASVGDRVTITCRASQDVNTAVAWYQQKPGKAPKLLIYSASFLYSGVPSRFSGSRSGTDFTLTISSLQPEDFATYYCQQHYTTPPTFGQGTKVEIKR
B22: De novo trastuzumab HCDR3 variant ASDRYGSYSLVS (SEQ ID NO: 480) (Fab, V domains shown)
VH: B18 VH with R98S, Y99D, Y100R, G101Y, W102G, Y103S, Y105S, F106L, D107V, Y108S
VL: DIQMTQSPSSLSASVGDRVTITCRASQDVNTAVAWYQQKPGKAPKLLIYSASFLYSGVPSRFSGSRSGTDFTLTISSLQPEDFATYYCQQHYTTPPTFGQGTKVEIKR
B23: De novo trastuzumab HCDR3 variant ARYAGVERPGSFAY (SEQ ID NO: 43) (Fab, V domains shown)
VH: EVQLVESGGGLVQPGGSLRLSCAASGFNIKDTYIHWVRQAPGKGLEWVARIYPTNGYTRYADSVKGRFTISADTSKNTAYLQMNSLRAEDTAVYYCARYAGVERPGSFAYWGQGTLVTVSS
VL: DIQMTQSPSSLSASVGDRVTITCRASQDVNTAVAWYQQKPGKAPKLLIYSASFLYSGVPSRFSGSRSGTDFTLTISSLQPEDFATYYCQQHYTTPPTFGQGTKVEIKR
B24: Multi-step trastuzumab HCDR3 variant TRYSYYGYHAMDY (SEQ ID NO: 549) (Fab, V domains shown)
VH: B1 VH with D52Y, A54T, A97T, V99Y, G100S, G101Y, R102Y, Y105H, Y106A, Y107M
VL: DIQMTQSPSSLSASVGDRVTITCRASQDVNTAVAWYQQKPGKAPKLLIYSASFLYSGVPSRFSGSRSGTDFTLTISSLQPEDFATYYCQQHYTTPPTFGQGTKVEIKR
B25: Multi-step trastuzumab HCDR3 variant TRYGSFGYYALDS (SEQ ID NO: 530) (Fab, V domains shown)
VH: B1 VH with D52Y, A54T, A97T, V99Y, G101S, R102F, Y106A, Y107L, Y109S
VL: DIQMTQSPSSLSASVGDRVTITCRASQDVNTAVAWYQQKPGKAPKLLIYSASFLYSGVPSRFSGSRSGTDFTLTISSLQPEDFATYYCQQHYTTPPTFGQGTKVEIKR
B26: Multi-step trastuzumab HCDR3 variant SRYSYSGGGSFDY (SEQ ID NO: 537) (Fab, V domains shown)
VH: B4 VH with A97S, S99Y, N100S, N101Y, W102S, Y103G, S104G, Y105G, Q108D, F109Y
VL: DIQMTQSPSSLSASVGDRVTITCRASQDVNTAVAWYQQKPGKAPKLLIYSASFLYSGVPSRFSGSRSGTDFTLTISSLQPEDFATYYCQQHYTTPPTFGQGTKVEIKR
B27: De novo trastuzumab HCDR1|2|3 variant GFNVSSSY / IYPENGST / SRYSYYGGYAFDY (Fab, V domains shown)
VH: EVQLVESGGGLVQPGGSLRLSCAASGFNVSSSYIHWVRQAPGKGLEWVARIYPENGSTRYADSVKGRFTISADTSKNTAYLQMNSLRAEDTAVYYCSRYSYYGGYAFDYWGQGTLVTVSS
VL: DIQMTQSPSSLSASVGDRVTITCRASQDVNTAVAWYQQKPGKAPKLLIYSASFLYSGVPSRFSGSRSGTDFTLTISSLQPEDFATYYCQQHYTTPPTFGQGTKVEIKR
notes: also called AI Design 1

Numbering of substitutions follows the chain as printed.

The target of one experiment is human epidermal growth factor receptor 2 (HER2) extracellular domain (human, UniProt P04626 23-629). Put plainly: SPR.
As to B1, the Kd stood at 134 nM. B2 had a Kd of 1320 nM.

The target of another experiment is T1, human epidermal growth factor receptor 2 (HER2) extracellular domain (human, UniProt P04626 23-629). The experiment can be described thus: SPR, Fab format. Background: In SPR one partner is held on a chip, and binding of the other changes the refractive index at the surface.
Turning to B3, the affinity, expressed as Kd, was 358 nM and the “log(KD (M))” value is -6.45 log M. Regarding B4, the Kd came to 278 nM and the “log(KD (M))” value is -6.56 log M. The corresponding values for B5 are 465 nM and -6.33 log M. The corresponding values for B6 are 496 nM and -6.3 log M.

Consider B7, for which the affinity, expressed as Kd, was 444 nM and the “log(KD (M))” value is -6.35 log M. For B8, in that order: 301 nM and -6.52 log M. For B9, in that order: 368 nM and -6.43 log M. For B10, in that order: 328 nM and -6.48 log M. B11: the Kd was found to be 570 nM and the “log(KD (M))” value is -6.24 log M.

In the case of B12, the Kd worked out at 367 nM and the “log(KD (M))” value is -6.44 log M. For B13, in that order: 322 nM and -6.49 log M. Take B14: the Kd stood at 339 nM and the “log(KD (M))” value is -6.47 log M. The corresponding values for B15 are 547 nM and -6.26 log M. On to B16, for which binding was put at a Kd of 326 nM and the “log(KD (M))” value was -6.49 log M. For B17, in that order: 1460 nM and -5.84 log M. For B18, in that order: 323 nM and -6.49 log M. For B19, in that order: 434 nM and -6.36 log M.

Regarding B20, the Kd is 433 nM and the “log(KD (M))” value was -6.36 log M.

For B21, the Kd was 630 nM and the “log(KD (M))” value was -6.2 log M. For B22, in that order: 314 nM and -6.5 log M. For B23, in that order: 574 nM and -6.24 log M.

The target of another experiment is T1, human epidermal growth factor receptor …. Put plainly: SPR, Fab format. The source holds these as a separate data set.
Consider B24, for which the Kd was determined as 354 nM and the “log(KD (M))” value was -6.45 log M.

For the molecule B25, the equilibrium dissociation constant (Kd) was found to be 57.6 nM and the “log(KD (M))” value is -7.24 log M. The corresponding values for B26 are 362 nM and -6.44 log M. Regarding B27, the affinity, expressed as Kd, was 225 nM and the “log(KD (M))” value was -6.65 log M.

In general, Kd refers to the constant that tells how readily two partners part at equilibrium. The low end stands for a tighter complex, the high end for a looser complex.
